Measurements published in patent CN113621079A.

Key:
CA724 胃癌抗原 (B72.3抗原) [1] = experiment: direct ELISA, antigen coated at 100 ng/mL, pNPP substrate read through the fused AP; still in linear range, no plateau
CA724 胃癌抗原 (B72.3抗原) [2] = experiment: direct ELISA, antigen coated at 100 ng/mL, pNPP substrate read through the attached ALP; plateau value
CA724 胃癌抗原 (B72.3抗原) [3] = experiment: ELISA, antigen coated at 100 ng/mL, HRP goat anti-mouse Fab secondary, OD450

Sequence of Fab抗体与碱性磷酸酶融合蛋白(Fab)2-AP (CA724-B72.3 Fab fused to calf intestinal alkaline phosphatase, Fab:AP monomer 1:1) (light, form in doubt): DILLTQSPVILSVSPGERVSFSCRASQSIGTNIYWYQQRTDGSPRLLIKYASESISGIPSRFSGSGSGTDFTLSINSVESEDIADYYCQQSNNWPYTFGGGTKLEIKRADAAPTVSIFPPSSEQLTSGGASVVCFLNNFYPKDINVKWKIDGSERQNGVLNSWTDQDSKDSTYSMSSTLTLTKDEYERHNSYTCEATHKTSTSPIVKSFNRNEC

| Substance | 吸光值 (405nm) (CA724 胃癌抗原 (B72.3抗原) [1]) [OD405] | 最高吸光值 (405nm) (CA724 胃癌抗原 (B72.3抗原) [2]) [OD405] | fold decrease of high-end antibody activity (against the original antibody / fusion protein) (CA724 胃癌抗原 (B72.3抗原) [3]) |
| --- | --- | --- | --- |
| Fab抗体与碱性磷酸酶融合蛋白(Fab)2-AP (CA724-B72.3 Fab fused to calf intestinal alkaline phosphatase, Fab:AP monomer 1:1) | 1.2 |  |  |
| 对照抗体化学标记ALP蛋白 (CA724-B72.3 antibody chemically labelled with alkaline phosphatase) |  | 0.8 | 1 倍 |
